Measurements from patent CN114957460A (dated 2022).

Tests used:
Assay in all cases: cell-based or functional assay
双组分毒素HlgA+LukF = 双组分毒素HlgA+LukF (金黄色葡萄球菌 (Staphylococcus aureus), UniProt P0A074 30-309; P31715 26-323)
双组分毒素HlgAB = 双组分毒素HlgAB (金黄色葡萄球菌 (Staphylococcus aureus), UniProt P0A074 30-309; P0A077 26-325)
双组分毒素HlgA+LukD = 双组分毒素HlgA+LukD (金黄色葡萄球菌 (Staphylococcus aureus), UniProt P0A074 30-309; O54082 27-327)

Measured: 兔红细胞溶血中和 (上清OD405)

B1: 鼠源抗原结合蛋白17C7 (antibody, V domains shown)
VH: EVQLQQSGAELVRSGASVKLSCTASGFNIKDYYMHWVKQRPEQGLEWIGWIDPENDIGEYAPKFQGKATMTADTSSNTAYLQLSSLTSEDTAVYFCNALWGGVLDYWGQGTSVTVSA
VL: DVVMTQTPLSLPVSLGDQASISCRSSQSLVNSNGNTYLHWYLQKPGQSPNLLIYRVSNRFSGVPDRFSGSGSGTDFTLKISRVEAEDLGVYFCSQSTHVPYTFGGGTKLEIKR
4 µg: all assays above
